Target: Death Receptor 5 (human) (UniProt O14763)
Assay: cell-based or functional assay

UniProt O14763, sequence (O14763 other isoform, or with tags, fused parts or gaps limits assumed): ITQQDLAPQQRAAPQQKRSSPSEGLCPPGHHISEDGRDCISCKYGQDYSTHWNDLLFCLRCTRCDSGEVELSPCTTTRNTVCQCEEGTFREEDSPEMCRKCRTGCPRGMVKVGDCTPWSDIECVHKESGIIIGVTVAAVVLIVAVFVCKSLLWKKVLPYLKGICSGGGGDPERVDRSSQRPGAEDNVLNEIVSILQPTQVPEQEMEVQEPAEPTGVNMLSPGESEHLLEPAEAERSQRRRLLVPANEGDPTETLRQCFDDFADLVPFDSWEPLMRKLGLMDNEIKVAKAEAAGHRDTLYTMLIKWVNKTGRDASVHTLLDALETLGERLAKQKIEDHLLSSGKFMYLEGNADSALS

| Substance | rate of DR5 endocytosis [fold] | receptor internalizing over 2 hr (fraction of the receptor) |
| --- | --- | --- |
| Flag-tagged human recombinant soluble Apo2L/TRAIL cross-linked by anti-FLAG M2 antibody (from UniProt P50591 114-281) (ligand) | 2 | 0.33 |
| human recombinant soluble Apo2L/TRAIL, non-tagged (trimeric) (from UniProt P50591 114-281) (ligand) | 2 | 0.33 |

Source: patent publication US20110244473A1
